This note sets out measurements from patent US20240076396A1 (Regeneron, published 2024).

The target of assay [1] is T1, hGITR.mFc (dimeric recombinant human GITR ectodomain protein, mouse Fc fusion) (human).
T1 construct: also called dimeric human GITR; dimeric GITR
T1 chain: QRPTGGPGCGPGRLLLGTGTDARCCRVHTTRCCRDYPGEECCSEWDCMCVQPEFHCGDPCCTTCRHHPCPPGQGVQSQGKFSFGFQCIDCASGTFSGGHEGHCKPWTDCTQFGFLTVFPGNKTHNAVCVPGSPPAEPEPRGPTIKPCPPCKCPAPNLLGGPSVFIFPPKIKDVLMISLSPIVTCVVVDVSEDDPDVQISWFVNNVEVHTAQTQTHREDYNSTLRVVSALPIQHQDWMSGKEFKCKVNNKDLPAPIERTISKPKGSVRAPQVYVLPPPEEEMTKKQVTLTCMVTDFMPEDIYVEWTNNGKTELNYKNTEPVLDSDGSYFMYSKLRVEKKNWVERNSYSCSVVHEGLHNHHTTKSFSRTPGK
Description: SPR Biacore T-200; purified antibody captured on anti-human Fc; 5 nM hGITR.mFc. On the procedure: (§1) For purified antibodies, Biacore experiments were performed as follows. Using a Biacore T-200 instrument, antibodies were captured for 30 seconds at a flow rate of 8 uL/min on a CM5 anti-humanFc-coupled surface. Approximately 120 RU of each antibody were captured. 10 nM hGITR.mmH (soluble monomeric hGITR, SEQ ID NO: 45) or 5 nM hGITR.mFc (dimeric Macaca fasicularis GITR, SEQ ID NO: 46) were injected over this surface for 5 minutes at a flow rate of 50 uL/min. Dissociation was measured for 10 min. The KD and t_{1/2} were calculated by fitting the double-referenced sensorgrams to a 1:1 binding model.
Background: SPR reads the build-up and loss of mass on a sensor chip optically.

Assay [2] deals with T1, hGITR.mFc (dimeric recombinant human …). The assay is described as follows: SPR Biacore 2000 25C; CHOt supernatant antibody captured on anti-human Fc; 50 nM hGITR.mFc. The method, then: (§2) Biacore experiments for antibodies secreted in conditioned culture medium were performed as follows. Using a Biacore 2000 instrument at 25° C., antibodies were captured for 80 seconds at a flow rate of 8 uL/min on a CM5 anti-humanFc-coupled surface. Approximately 1000-2000 RU of each antibody were captured. 100 nM hGITR.mmH (soluble monomeric hGITR, SEQ ID NO: 45) or 50 nM hGITR.mFc (dimeric Macaca fasicularis GITR, SEQ ID NO: 46) were injected over this surface for 2 minutes at a flow rate of 50 uL/min. Dissociation was measured for 2 minutes. The KD and t_{1/2} were calculated by fitting the double-referenced sensorgrams to a 1:1 binding model.

For assay [3], the target named is T2, hGITR.mmH (soluble monomeric recombinant human GITR ectodomain protein) (human).
T2 construct: also called monomeric human GITR
T2 chain: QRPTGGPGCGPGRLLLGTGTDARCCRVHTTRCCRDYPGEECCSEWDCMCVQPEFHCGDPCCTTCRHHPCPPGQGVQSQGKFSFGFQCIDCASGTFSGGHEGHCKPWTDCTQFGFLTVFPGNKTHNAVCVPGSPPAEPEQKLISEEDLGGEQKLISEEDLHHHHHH
Description: SPR Biacore T-200; purified antibody captured on anti-human Fc; 10 nM hGITR.mmH. On the procedure: as §1

Assay [4] concerns the target T2, hGITR.mmH (soluble monomeric …). The assay is described as follows: SPR Biacore 2000 25C; CHOt supernatant antibody captured on anti-human Fc; 100 nM hGITR.mmH. On the procedure:
as §2

For assay [5] the target is unchanged. Description: SPR Biacore 2000 25C; CHOt supernatant antibody captured on anti-human Fc. On the procedure:
as §2

In assay [6] the target is T1, hGITR.mFc (dimeric recombinant human …). The assay is described as above. The method, then: as §2

B1: mAb2 (antibody, human IgG1, kappa, V domains shown)
VH: QVQLQESGPGLVKPSETLSLTCIVSGGSISGYFWNWIRQPPGKGLEWIGYIYYSGTTIYNPSLKSRFTISLDTSKNQFSLKLTSVTAADTAVYYCARESYEPSPRYFDHWGQGTLVTVSS
VL: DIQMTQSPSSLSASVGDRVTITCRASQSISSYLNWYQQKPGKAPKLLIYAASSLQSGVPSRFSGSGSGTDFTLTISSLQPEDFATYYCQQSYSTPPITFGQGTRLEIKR
notes: Human IgG1; N101E variant of CompAb1; also called N101E Variant; N101E
A word on the Kd: it is the concentration at which binding is half-saturated. On to B1, for which the dissociation constant Kd amounted to 0.902 nM in assay [1], 1.27 nM in assay [2], 11.3 nM in assay [3] and 109 nM in assay [4]. Besides, the t1/2 is 9.55 min in assay [1], 34.9 min in assay [2], 2.8 min in assay [3] and 0.99 min in assay [4].

B2: CompAb1 (antibody, V domains shown)
VH: QVQLQESGPGLVKPSETLSLTCIVSGGSISGYFWNWIRQPPGKGLEWIGYIYYSGTTIYNPSLKSRFTISLDTSKNQFSLKLTSVTAADTAVYYCARESYNPSPRYFDHWGQGTLVTVSS
VL: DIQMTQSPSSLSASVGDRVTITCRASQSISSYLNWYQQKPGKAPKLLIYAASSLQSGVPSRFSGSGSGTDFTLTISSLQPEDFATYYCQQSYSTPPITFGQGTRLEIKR
notes: Human IgG1; also called WT; Sample Number 1
Consider B2, for which the Kd in assay [1] was 0.137 nM; in assay [2] it was 0.201 nM; in assay [3], 1.51 nM; in assay [4] it was 24.9 nM. Besides, the t1/2 turned out to be 35.6 min in assay [1], 194 min in assay [2], 6.75 min in assay [3] and 4.56 min in assay [4].

B3: CompAb1 heavy chain variant N101A (antibody, human IgG1, V domains shown)
VH: QVQLQESGPGLVKPSETLSLTCIVSGGSISGYFWNWIRQPPGKGLEWIGYIYYSGTTIYNPSLKSRFTISLDTSKNQFSLKLTSVTAADTAVYYCARESYAPSPRYFDHWGQGTLVTVSS
VL: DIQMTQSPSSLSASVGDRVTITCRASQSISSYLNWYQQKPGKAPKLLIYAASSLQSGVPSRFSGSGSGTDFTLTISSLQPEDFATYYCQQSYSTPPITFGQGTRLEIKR
notes: human IgG1 constant region; tested as CHOt supernatant; also called Sample Number 2
As to B3, in assay [2], the equilibrium dissociation constant (Kd) stood at 42.4 nM and the t1/2 came to 0.47 min. Also, the binding result in assay [5] is given as “no binding (tested: 100 nM hGITR.mmH)”.

B4: mAb4 (antibody, human IgG1, kappa, V domains shown)
VH: QVQLQESGPGLVKPSETLSLTCIVSGGSISGYFWNWIRQPPGKGLEWIGYIYYSGTTIYNPSLKSRFTISLDTSKNQFSLKLTSVTAADTAVYYCARESYTPSPRYFDHWGQGTLVTVSS
VL: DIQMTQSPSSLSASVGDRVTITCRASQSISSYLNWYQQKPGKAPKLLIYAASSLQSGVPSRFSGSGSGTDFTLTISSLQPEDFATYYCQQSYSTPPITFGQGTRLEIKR
notes: Human IgG1; N101T variant of CompAb1; also called N101T Variant; N101T
In the case of B4, the Kd in assay [1] was found to be 0.663 nM; in assay [2] it was 0.284 nM; in assay [3], 8 nM; in assay [4], 61.3 nM. The t1/2 in assay [1] turned out to be 10 min; in assay [2], 110 min; in assay [3], 2.25 min; in assay [4], 1.52 min.

B5: CompAb1 heavy chain variant S103K (antibody, human IgG1, V domains shown)
VH: QVQLQESGPGLVKPSETLSLTCIVSGGSISGYFWNWIRQPPGKGLEWIGYIYYSGTTIYNPSLKSRFTISLDTSKNQFSLKLTSVTAADTAVYYCARESYNPKPRYFDHWGQGTLVTVSS
VL: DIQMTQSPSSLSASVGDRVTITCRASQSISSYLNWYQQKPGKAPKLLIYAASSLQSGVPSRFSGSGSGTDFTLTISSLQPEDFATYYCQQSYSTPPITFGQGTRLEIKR
notes: human IgG1 constant region; tested as CHOt supernatant; also called Sample Number 27
Turning to B5, in assay [2], the Kd is 47.5 nM and the t1/2 came to 0.64 min. Also, in assay [5], the binding result was “no binding (tested: 100 nM hGITR.mmH)”.

B6: CompAb1 heavy chain variant N101P (antibody, human IgG1, V domains shown)
VH: QVQLQESGPGLVKPSETLSLTCIVSGGSISGYFWNWIRQPPGKGLEWIGYIYYSGTTIYNPSLKSRFTISLDTSKNQFSLKLTSVTAADTAVYYCARESYPPSPRYFDHWGQGTLVTVSS
VL: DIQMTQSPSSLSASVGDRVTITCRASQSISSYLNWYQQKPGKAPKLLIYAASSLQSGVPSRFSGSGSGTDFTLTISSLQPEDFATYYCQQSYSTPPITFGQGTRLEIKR
notes: human IgG1 constant region; tested as CHOt supernatant; also called Sample Number 12
On to B6, for which the binding result in assay [5] was “no binding (tested: 100 nM hGITR.mmH)”; in assay [6], “no binding (tested: 50 nM hGITR.mFc)”.

B7: CompAb1 heavy chain variant N101W (antibody, human IgG1, V domains shown)
VH: QVQLQESGPGLVKPSETLSLTCIVSGGSISGYFWNWIRQPPGKGLEWIGYIYYSGTTIYNPSLKSRFTISLDTSKNQFSLKLTSVTAADTAVYYCARESYWPSPRYFDHWGQGTLVTVSS
VL: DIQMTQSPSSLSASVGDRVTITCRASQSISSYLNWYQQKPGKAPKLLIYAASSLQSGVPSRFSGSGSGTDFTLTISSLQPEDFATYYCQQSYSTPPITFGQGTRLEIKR
notes: human IgG1 constant region; tested as CHOt supernatant; also called Sample Number 18
In the case of B7, the binding result is “no binding (tested: 100 nM hGITR.mmH)” in assay [5] and “no binding (tested: 50 nM hGITR.mFc)” in assay [6].

B8: CompAb1 heavy chain variant N101L (antibody, human IgG1, V domains shown)
VH: QVQLQESGPGLVKPSETLSLTCIVSGGSISGYFWNWIRQPPGKGLEWIGYIYYSGTTIYNPSLKSRFTISLDTSKNQFSLKLTSVTAADTAVYYCARESYLPSPRYFDHWGQGTLVTVSS
VL: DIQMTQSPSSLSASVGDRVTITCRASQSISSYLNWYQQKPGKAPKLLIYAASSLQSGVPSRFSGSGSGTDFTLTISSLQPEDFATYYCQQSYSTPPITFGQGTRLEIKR
notes: human IgG1 constant region; tested as CHOt supernatant; also called Sample Number 10
Turning to B8, in assay [2], the Kd turned out to be 57.5 nM and the t1/2 was found to be 0.45 min. The binding result in assay [5] was “no binding (tested: 100 nM hGITR.mmH)”.

B9: CompAb1 heavy chain variant S103Y (antibody, human IgG1, V domains shown)
VH: QVQLQESGPGLVKPSETLSLTCIVSGGSISGYFWNWIRQPPGKGLEWIGYIYYSGTTIYNPSLKSRFTISLDTSKNQFSLKLTSVTAADTAVYYCARESYNPYPRYFDHWGQGTLVTVSS
VL: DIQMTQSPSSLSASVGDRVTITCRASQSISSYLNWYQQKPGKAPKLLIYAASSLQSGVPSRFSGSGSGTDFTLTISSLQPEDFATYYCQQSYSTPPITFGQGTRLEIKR
notes: human IgG1 constant region; tested as CHOt supernatant; also called Sample Number 37
As to B9, in assay [2], the Kd worked out at 3.03 nM and the t1/2 stood at 10.4 min. Moreover, in assay [4], the Kd was 4.39 nM and the t1/2 is 26.6 min.

B10: CompAb1 heavy chain variant N101Y (antibody, human IgG1, V domains shown)
VH: QVQLQESGPGLVKPSETLSLTCIVSGGSISGYFWNWIRQPPGKGLEWIGYIYYSGTTIYNPSLKSRFTISLDTSKNQFSLKLTSVTAADTAVYYCARESYYPSPRYFDHWGQGTLVTVSS
VL: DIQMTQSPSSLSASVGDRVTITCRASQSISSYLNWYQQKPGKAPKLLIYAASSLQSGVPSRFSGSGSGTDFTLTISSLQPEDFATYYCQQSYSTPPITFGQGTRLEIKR
notes: human IgG1 constant region; tested as CHOt supernatant; also called Sample Number 19
Consider B10, for which the figures for the binding result in assay [5] and in assay [6] were “no binding (tested: 100 nM hGITR.mmH)” and “no binding (tested: 50 nM hGITR.mFc)”, respectively.

B11: mAb3 (antibody, human IgG1, kappa, V domains shown)
VH: QVQLQESGPGLVKPSETLSLTCIVSGGSISGYFWNWIRQPPGKGLEWIGYIYYSGTTIYNPSLKSRFTISLDTSKNQFSLKLTSVTAADTAVYYCARESYSPSPRYFDHWGQGTLVTVSS
VL: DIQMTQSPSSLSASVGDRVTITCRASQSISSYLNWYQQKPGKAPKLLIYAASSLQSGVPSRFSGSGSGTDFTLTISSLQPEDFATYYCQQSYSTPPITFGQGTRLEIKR
notes: Human IgG1; N101S variant of CompAb1; also called N101S Variant; N101S
Consider B11, for which the Kd in assay [1] came to 0.882 nM; in assay [2], 0.908 nM; in assay [3], 6.05 nM; in assay [4] it was 81.9 nM. Also, the t1/2 was 5.56 min in assay [1], 37.7 min in assay [2], 4.65 min in assay [3] and 0.92 min in assay [4].

B12: CompAb1 heavy chain variant N101H (antibody, human IgG1, V domains shown)
VH: QVQLQESGPGLVKPSETLSLTCIVSGGSISGYFWNWIRQPPGKGLEWIGYIYYSGTTIYNPSLKSRFTISLDTSKNQFSLKLTSVTAADTAVYYCARESYHPSPRYFDHWGQGTLVTVSS
VL: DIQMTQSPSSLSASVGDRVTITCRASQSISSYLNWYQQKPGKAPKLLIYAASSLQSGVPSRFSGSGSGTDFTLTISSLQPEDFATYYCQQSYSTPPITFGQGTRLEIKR
notes: human IgG1 constant region; tested as CHOt supernatant; also called Sample Number 7
As to B12, the binding result in assay [5] is reported as “no binding (tested: 100 nM hGITR.mmH)”; in assay [6], “no binding (tested: 50 nM hGITR.mFc)”.

B13: CompAb1 heavy chain variant N101F (antibody, human IgG1, V domains shown)
VH: QVQLQESGPGLVKPSETLSLTCIVSGGSISGYFWNWIRQPPGKGLEWIGYIYYSGTTIYNPSLKSRFTISLDTSKNQFSLKLTSVTAADTAVYYCARESYFPSPRYFDHWGQGTLVTVSS
VL: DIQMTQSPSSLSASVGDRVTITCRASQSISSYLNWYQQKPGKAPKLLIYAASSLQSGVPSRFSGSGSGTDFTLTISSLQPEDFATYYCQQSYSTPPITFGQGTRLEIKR
notes: human IgG1 constant region; tested as CHOt supernatant; also called Sample Number 5
With B13, the binding result is on record as “no binding (tested: 100 nM hGITR.mmH)” in assay [5] and “no binding (tested: 50 nM hGITR.mFc)” in assay [6].

B14: CompAb1 heavy chain variant S103R (antibody, human IgG1, V domains shown)
VH: QVQLQESGPGLVKPSETLSLTCIVSGGSISGYFWNWIRQPPGKGLEWIGYIYYSGTTIYNPSLKSRFTISLDTSKNQFSLKLTSVTAADTAVYYCARESYNPRPRYFDHWGQGTLVTVSS
VL: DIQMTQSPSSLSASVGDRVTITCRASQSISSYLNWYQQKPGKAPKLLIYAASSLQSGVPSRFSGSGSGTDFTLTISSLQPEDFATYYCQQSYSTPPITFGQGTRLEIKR
notes: human IgG1 constant region; tested as CHOt supernatant; also called Sample Number 33
B14: in assay [2], the Kd stood at 45.6 nM and the t1/2 came out at 0.75 min. In addition, the binding result in assay [5] was “no binding (tested: 100 nM hGITR.mmH)”.
